The record followed here is PMC4595200, “In vitro analyses of mitochondrial ATP/phosphate carriers from Arabidopsis thaliana revealed unexpected Ca^2+-effects” (BMC Plant Biology, 2015).

Substrate in series [1]: Nc1ncnc2c1ncn2[C@@H]1O[C@H](COP(=O)(O)OP(=O)(O)O)[C@@H](O)[C@H]1O
The series can be described thus: radiolabelled uptake into proteoliposomes. The series is classed as biochemical, Arabidopsis thaliana. The following applies: ADP import / ATP export (ATP-loaded, 5 mM), no added Ca2+ or Mg2+, pH 7.5, 30 °C, 2.5 min, labelled compound, apparent.

Substrate in series [2]: Nc1ncnc2c1ncn2[C@@H]1O[C@H](COP(=O)(O)OP(=O)(O)OP(=O)(O)O)[C@@H](O)[C@H]1O
As to the kind of experiment: radiolabelled uptake into proteoliposomes. It is filed as biochemical, Arabidopsis thaliana. The following applies: ATP import / Pi export (Pi-loaded, 5 mM), no added Ca2+ or Mg2+ (traces ~9 μM each), pH 7.5, 30 °C, 2.5 min, labelled compound, apparent.

Substrate in series [3]: Nc1ncnc2c1ncn2[C@@H]1O[C@H](COP(=O)(O)OP(=O)(O)O)[C@@H](O)[C@H]1O
As to the kind of experiment: purified protein. The following applies: ADP import / ATP export (ATP-loaded, 5 mM), no added Ca2+ or Mg2+, pH 7.5, 30 °C, 2.5 min, labelled compound, apparent.

Substrate in series [4]: Nc1ncnc2c1ncn2[C@@H]1O[C@H](COP(=O)(O)OP(=O)(O)OP(=O)(O)O)[C@@H](O)[C@H]1O
As to the kind of experiment: purified protein. The following applies: ATP import / Pi export (Pi-loaded, 5 mM), no added Ca2+ or Mg2+ (traces ~9 μM each), pH 7.5, 30 °C, 2.5 min, labelled compound, apparent.

B1: AtAPC2 (Arabidopsis thaliana) (protein)
chain: MEATKSSKQNCCNPVKKPGPVSIDHVLLALRETREERDLRIRSLFSFFDSENVGYLDCAQIEKGLCALQIPSGYKYAKELFRVCDANRDGRVDYHEFRRYMDDKELELYRIFQAIDVEHNGCISPEGLWDSLVKAGIEIKDEELARFVEHVDKDNDGIIMFEEWRDFLLLYPHEATIENIYHHWERVCLVDIGEQAVIPEGISKHIKRSNYFIAGGIAGAASRTATAPLDRLKVLLQIQKTDARIREAIKLIWKQGGVRGFFRGNGLNIVKVAPESAIKFYAYELFKNAIGENMGEDKADIGTTVRLFAGGMAGAVAQASIYPLDLVKTRLQTYTSQAGVAVPRLGTLTKDILVHEGPRAFYKGLFPSLLGIIPYAGIDLAAYETLKDLSRTYILQDAEPGPLVQLGCGTISGALGATCVYPLQVVRTRMQAERARTSMSGVFRRTISEEGYRALYKGLLPNLLKVVPAASITYMVYEAMKKSLELD
With B1, in series [1], the Km is on record as 374 (±40) μM and the Vmax is given as 778 (±82) nmol mg protein^-1 h^-1. Besides, in series [2], the Km is 95 (±12) μM and the Vmax was 212 (±24) nmol mg protein^-1 h^-1.

B2: AtAPC1 (Arabidopsis thaliana) (protein)
chain: MEAEKSKQNPGKKPVEATMEHVLVALRETKEKREIRIQKLFEFFDNSKLGFLDDTQIEKGLSSLSIPPKYRYASDFLKVCDSNRDGRVDYQEFRRYMDAKELELYKIFQAIDIEHNGDICPAELWEALDKAGIKIKDEELASFMEHVDKDNNGIITFEEWRDFLLLNPHEATIENIYHHWERVCLIDIGEQAVIPDGISAHAQRSKLLLAGGIAGAVSRTATAPLDRLKVALQVQRTNLGVVPTIKKIWREDKLLGFFRGNGLNVAKVAPESAIKFAAYEMLKPIIGGADGDIGTSGRLLAGGLAGAVAQTAIYPMDLVKTRLQTFVSEVGTPKLWKLTKDIWIQEGPRAFYRGLCPSLIGIIPYAGIDLAAYETLKDLSRAHFLHDTAEPGPLIQLGCGMTSGALGASCVYPLQVIRTRMQADSSKTSMGQEFLKTLRGEGLKGFYRGIFPNFFKVIPSASISYLVYEAMKKNLALD
Regarding B2, in “purified protein [3]”, the Km is listed as 180 (±15) μM and the Vmax was 2078 (±315) nmol mg protein^-1 h^-1. Besides, in “purified protein [4]”, the Km is 68 (6) μM and the Vmax is given as 201(±14) nmol mg protein^-1 h^-1.

B3: AtAPC3 (Arabidopsis thaliana) (protein)
chain: MESSKPKNRNPMKKPVSITMEHVLLALRETMDEREIRIRSLFDFFDNSNLGFLDYAQIEKGLASLQIPPEYKYARDLFRVCDANRDGRVDYQEFRRYIDAKELELYRIFQAIDVEHNGCILPEELWEALVKAGIEIDDEELARFVEHVDKDNNGTITFEEWRDFLLLYPHEATLENIYHHWERVCLIDIGEQAVIPDGISKHVKRSRLLLAGGLAGAVSRTATAPLDRLKVVLQVQRAHAGVLPTIKKIWREDKLMGFFRGNGLNVMKVAPESAIKFCAYEMLKPMIGGEDGDIGTSGRLMAGGMAGALAQTAIYPMDLVKTRLQTCVSEGGKAPKLWKLTKDIWVREGPRAFYKGLFPSLLGIVPYAGIDLAAYETLKDLSRTYILQDTEPGPLIQLSCGMTSGALGASCVYPLQVVRTRMQADSSKTTMKQEFMNTMKGEGLRGFYRGLLPNLLKVVPAASITYIVYEAMKKNMALD
As for B3, in series [1], the Km is reported as 72 (±5) μM and the Vmax is reported as 770 (±90) nmol mg protein^-1 h^-1. Moreover, in series [2], the Km is on record as 113 (±17) μM and the Vmax is 282 (±20) nmol mg protein^-1 h^-1.
